Biological target: recombinant Tau (Panvera)

B1: full length human transglutaminase II (protein)
chain: MAEELVLERCDLELETNGRDHHTADLCREKLVVRRGQPFWLTLHFEGRNYEASVDSLTFSVVTGPAPSQEAGTKARFPLRDAVEEGDWTATVVDQQDCTLSLQLTTPANAPIGLYRLSLEASTGYQGSSFVLGHFILLFNAWCPADAVYLDSEEERQEYVLTQQGFIYQGSAKFIKNIPWNFGQFEDGILDICLILLDVNPKFLKNAGRDCSRRSSPVYVGRVVSGMVNCNDDQGVLLGRWDNNYGDGVSPMSWIGSVDILRRWKNHGCQRVKYGQCWVFAAVACTVLRCLGIPTRVVTNYNSAHDQNSNLLIEYFRNEFGEIQGDKSEMIWNFHCWVESWMTRPDLQPGYEGWQALDPTPQEKSEGTYCCGPVPVRAIKEGDLSTKYDAPFVFAEVNADVVDWIQQDDGSVHKSINRSLIVGLKISTKSVGRDEREDITHTYKYPEGSSEEREAFTRANHLNKLAEKEETGMAMRIRVGQSMNMGSDFDVFAHITNNTAEEYVCRLLLCARTVSYNGILGPECGTKYLLNLNLEPFSEKSVPLCILYEKYRDCLTESNLIKVRALLVEPVINSYLLAERDLYLENPEIKIRILGEPKQKRKLVAEVSLQNPLPVALEGCTFTVEGAGLTEEQKTVEIPDPVEAGEEVKVRMDLLPLHMGLHKLVVNFESDKLKAVKGFRNVIIGPA
tau aggregation (high molecular weight total tau immunoreactive protein complex on western blot) in the transglutaminase activity assay: increased, Ca2+-dependent tau aggregation when recombinant tau was added to brain lysate from mice with overexpression of hTGII

— US20060015959
